This passage reports Kd results from article doi:10.1101/2022.06.13.496009.

This series deals with T1, SALL4 ZFC4 (human, UniProt Q9UJQ4 856-930).
T1 sequence: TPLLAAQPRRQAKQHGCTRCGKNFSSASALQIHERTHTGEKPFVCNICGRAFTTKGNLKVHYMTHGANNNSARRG
In words: ITC.

B1: 12-mer T3C/A3'G (dsDNA)
DNA 1: GGCAATATTTCC
DNA 2: GGAAATATTGCC
B1 had a Kd of around 9.95 µM.

What is called Kd is the concentration at which binding is half-saturated. Read a low Kd as tighter binding.
